According to US20180086849A1 (Hoffmann-La Roche, published 2018):

Columns and labels:
[1] = target: T1, hu-MCSP(D3 domain)-avi-his (human, UniProt Q6UVK1 1582-2224, biotinylated where used for selection or for coupling to the SA chip); assay: SPR (ProteOn XPR36), IgG KD against parental M4-3/ML2
T1 construct: also called human MCSP(D3 domain)-avi-his; human MCSP D3
T1 sequence: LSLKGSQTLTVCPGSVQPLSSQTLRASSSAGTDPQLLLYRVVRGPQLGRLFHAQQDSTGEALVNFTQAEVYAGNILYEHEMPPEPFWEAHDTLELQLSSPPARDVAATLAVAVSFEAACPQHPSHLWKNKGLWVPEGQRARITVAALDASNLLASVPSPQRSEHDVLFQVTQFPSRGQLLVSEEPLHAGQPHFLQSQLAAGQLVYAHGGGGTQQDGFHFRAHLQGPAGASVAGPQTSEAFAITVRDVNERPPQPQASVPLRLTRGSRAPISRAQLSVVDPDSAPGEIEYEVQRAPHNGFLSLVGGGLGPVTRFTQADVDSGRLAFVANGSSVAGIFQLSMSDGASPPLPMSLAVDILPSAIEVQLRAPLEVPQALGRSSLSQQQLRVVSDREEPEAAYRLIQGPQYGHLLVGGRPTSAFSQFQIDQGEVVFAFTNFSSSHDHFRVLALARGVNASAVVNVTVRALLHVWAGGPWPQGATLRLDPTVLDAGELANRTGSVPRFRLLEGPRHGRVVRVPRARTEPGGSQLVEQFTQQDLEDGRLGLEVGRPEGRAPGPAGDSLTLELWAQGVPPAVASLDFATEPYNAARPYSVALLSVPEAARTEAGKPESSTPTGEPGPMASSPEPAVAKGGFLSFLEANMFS
Description: (§1) Briefly, carboxymethylated dextran biosensor chips (CM5, GE Healthcare) were activated with N-ethyl-N′-(3-dimethylaminopropyl)-carbodiimide hydrochloride (EDC) and N-hydroxysuccinimide (NHS) according to the supplier's instructions. Anti-human F(ab′)2 fragment specific capture antibody was diluted with 10 mM sodium acetate, pH 5.0 at 50 μg/ml before injection at a flow rate of 10 μl/minute to achieve approximately up to 10.000 response units (RU) of coupled capture antibody. Following the injection of the capture antibody, 1 M ethanolamine was injected to block unreacted groups. For kinetics measurements, Fabs from bacterial supernatant or purified Fabs are injected at a flow rate of 10 ul/minute for 300 s and a dissociation of 300 s for capture baseline stabilization. […] The surface of the sensorchip was regenerated by injection of glycine pH 1.5 for 30 s at 90 ul/min followed by injection of NaOH for 20 s at the same flow rate. Association rates (kon) and dissociation rates (koff) were calculated using a simple one-to-one Langmuir binding model (ProteOn XPR36 Evaluation Software or Scrubber software (BioLogic)) by simultaneously fitting the association and dissociation sensorgrams. The equilibrium dissociation constant (KD) was calculated as the ratio koff/kon. […] Since CDR1 and 2 of the light chain were randomized independent from CDR3, the obtained CDRs were combined during IgG conversion.
(§2) In the IgG format affinities were measured again to the human MCSP antigen (SEQ ID NO. 390), in addition also to the cynomolgus homologue (SEQ ID NO. 389). Method exactly as described for the Fab fragments, just purified IgG from mammalian production were used.

[2] = target: T2, cynomolgus MCSP D3 (cynomolgus, UniProt Q6UVK1 1582-2224 (human entry)); assay: as above
T2 construct: also called cynomolgus homologue; not shown: C-terminal tag
T2 chain: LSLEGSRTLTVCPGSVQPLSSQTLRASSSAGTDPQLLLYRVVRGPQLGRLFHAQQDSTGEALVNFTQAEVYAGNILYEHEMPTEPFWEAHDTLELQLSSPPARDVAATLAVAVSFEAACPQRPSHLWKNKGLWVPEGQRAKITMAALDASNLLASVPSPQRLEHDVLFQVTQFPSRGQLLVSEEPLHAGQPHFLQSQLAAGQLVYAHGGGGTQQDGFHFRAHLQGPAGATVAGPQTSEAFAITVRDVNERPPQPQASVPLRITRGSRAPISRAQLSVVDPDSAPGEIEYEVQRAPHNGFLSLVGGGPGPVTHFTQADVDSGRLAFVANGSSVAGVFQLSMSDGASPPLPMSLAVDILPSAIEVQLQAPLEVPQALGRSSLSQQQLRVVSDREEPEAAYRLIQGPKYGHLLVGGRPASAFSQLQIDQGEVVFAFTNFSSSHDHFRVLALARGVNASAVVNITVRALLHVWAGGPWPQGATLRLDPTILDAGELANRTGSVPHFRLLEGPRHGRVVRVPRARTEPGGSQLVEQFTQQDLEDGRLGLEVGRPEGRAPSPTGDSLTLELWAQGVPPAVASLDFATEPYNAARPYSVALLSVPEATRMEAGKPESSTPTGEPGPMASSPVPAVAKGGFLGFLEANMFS
Description: as §1, §2

[3] = target: T1, hu-MCSP(D3 domain)-avi-his; assay: SPR (ProteOn XPR36), IgG captured, antigen as analyte
Description: Briefly, carboxymethylated dextran biosensor chips (CM5, GE Healthcare) were activated with N-ethyl-N′-(3-dimethylaminopropyl)-carbodiimide hydrochloride (EDC) and N-hydroxysuccinimide (NHS) according to the supplier's instructions. Anti-human F(ab′)2 fragment specific capture antibody was diluted with 10 mM sodium acetate, pH 5.0 at 50 μg/ml before injection at a flow rate of 10 μl/minute to achieve approximately up to 10.000 response units (RU) of coupled capture antibody. Following the injection of the capture antibody, 1 M ethanolamine was injected to block unreacted groups. For kinetics measurements, Fabs from bacterial supernatant or purified Fabs are injected at a flow rate of 10 ul/minute for 300 s and a dissociation of 300 s for capture baseline stabilization. […] Association rates (kon) and dissociation rates (koff) were calculated using a simple one-to-one Langmuir binding model (ProteOn XPR36 Evaluation Software or Scrubber software (BioLogic)) by simultaneously fitting the association and dissociation sensorgrams. The equilibrium dissociation constant (KD) was calculated as the ratio koff/kon. […]
In the IgG format affinities were measured again to the human MCSP antigen (SEQ ID NO. 390), in addition also to the cynomolgus homologue (SEQ ID NO. 389). […]

- Comparative binding affinity - Fold increase over parent [1]: 28.6 fold
- Comparative binding affinity - Fold increase over parent [2]: 10 fold
- Kd [3]: 0.07 nM
B1: M4-3(A7)/ML2(C5) (IgG) (antibody, V domains shown)
VH: QVQLQESGPGLVKPSQTLSLTCTVSGGSITDGYYWNWIRQHPGKGLEWIGYITFDGRNNYNPSLKSRVTISRDTSKNQFSLKLSSVTAADTAVYYCADFDYWGQGTLVTVSS
VL: DIQMTQSPSSLSASVGDRVTITCRASRGIREYLNWYQQKPGKAPKLLIYYTGSLHSGVPSRFSGSGSGTDFTLTISSLQPEDFATYYCQQYSELPWTFGQGTKVEIK
notes: Human IgG1 format
